The values below come from US20150098945A1 (Daiichi Sankyo, published 2015).

The target of experiment [1] is T1, N-terminal FLAG-tagged cynomolgus monkey ROBO4, cynoROBO4-2 (pCI-FLAG-cynoROBO4-2) (cynomolgus monkey, UniProt Q8WZ75 28-1007 (human entry)).
T1 chain: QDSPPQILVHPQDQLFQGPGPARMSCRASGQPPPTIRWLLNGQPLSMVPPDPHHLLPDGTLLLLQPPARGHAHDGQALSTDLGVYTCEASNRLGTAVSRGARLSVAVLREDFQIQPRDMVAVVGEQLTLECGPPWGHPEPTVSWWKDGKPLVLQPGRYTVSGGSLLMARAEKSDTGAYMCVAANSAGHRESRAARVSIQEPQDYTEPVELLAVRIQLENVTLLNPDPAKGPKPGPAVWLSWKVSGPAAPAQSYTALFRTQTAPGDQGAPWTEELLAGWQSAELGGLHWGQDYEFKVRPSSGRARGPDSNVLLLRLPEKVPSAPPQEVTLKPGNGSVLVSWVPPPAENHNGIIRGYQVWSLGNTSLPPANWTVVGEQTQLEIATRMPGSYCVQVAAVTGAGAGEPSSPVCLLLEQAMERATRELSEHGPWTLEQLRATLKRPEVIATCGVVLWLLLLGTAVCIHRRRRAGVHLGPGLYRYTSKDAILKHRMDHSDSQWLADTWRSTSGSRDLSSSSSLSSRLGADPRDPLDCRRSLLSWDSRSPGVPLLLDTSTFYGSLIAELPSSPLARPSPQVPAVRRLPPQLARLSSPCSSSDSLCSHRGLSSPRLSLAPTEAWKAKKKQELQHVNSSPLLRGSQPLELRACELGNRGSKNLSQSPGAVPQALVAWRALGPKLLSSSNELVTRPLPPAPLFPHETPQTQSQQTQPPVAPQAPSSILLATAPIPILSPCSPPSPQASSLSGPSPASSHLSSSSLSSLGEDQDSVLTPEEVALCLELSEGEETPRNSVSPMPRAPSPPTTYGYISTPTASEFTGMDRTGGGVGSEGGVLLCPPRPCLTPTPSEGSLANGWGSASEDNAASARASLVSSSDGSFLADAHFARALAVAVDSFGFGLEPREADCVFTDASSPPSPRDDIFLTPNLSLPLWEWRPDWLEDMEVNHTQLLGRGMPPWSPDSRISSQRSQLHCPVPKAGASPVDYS
Briefly: flow cytometry, HEK293 cells transfected with pCI-FLAG-cynoROBO4-2, antibody at 10 µg/mL, anti-mouse IgG FITC; control histogram IgG (Mouse IgG2a). Here is the method: HEK293 cells were inoculated at a concentration of 1.5×10⁶ cells/dish to a 60-mm dish (manufactured by Corning Inc.) and cultured overnight in a DMEM medium containing 10% FBS at 37° C. under 5% CO₂ conditions. On the next day, the HEK293 cells were transfected with pCI-hROBO4, pCI-mROBO4, pCI-raROBO4, pCI-FLAG-cynoROBO4-1, pCI-FLAG-cynoROBO4-2, pCI-hROBO1, pCI-hROBO2, or pCI-hROBO3 using FuGENE6 Transfection Reagent and further cultured overnight at 37° C. under 5% CO₂ conditions. On the next day, the expression vector-transfected cells were treated with TrypLE Express (manufactured by Life Technologies Corp.), washed with PBS containing 5% FBS, and then suspended in PBS containing 5% FBS. The obtained cell suspension was used in flow cytometry analysis.
Each cell suspension prepared in 4)-3-1 was centrifuged, and the supernatant was removed. Then, MAb1 or a negative control Mouse IgG2a was added at a concentration of 10 μg/mL to 2×10⁵ expression vector-transfected cells, and the resulting suspension was left standing at 4° C. for 1 hour. […] Data was analyzed using Flowjo. The histogram of FITC fluorescence intensity was prepared. The antibody was determined to bind in a cross-species manner when the histogram of MAb1 was shifted to a stronger fluorescence intensity region compared with the histogram of the negative control Mouse IgG2a.

Experiment [2] deals with T2, rat ROBO4 (pCI-raROBO4-transfected HEK293 cells) (rat, UniProt Q80W87 38-949 at identity 0.93)).
T2 chain: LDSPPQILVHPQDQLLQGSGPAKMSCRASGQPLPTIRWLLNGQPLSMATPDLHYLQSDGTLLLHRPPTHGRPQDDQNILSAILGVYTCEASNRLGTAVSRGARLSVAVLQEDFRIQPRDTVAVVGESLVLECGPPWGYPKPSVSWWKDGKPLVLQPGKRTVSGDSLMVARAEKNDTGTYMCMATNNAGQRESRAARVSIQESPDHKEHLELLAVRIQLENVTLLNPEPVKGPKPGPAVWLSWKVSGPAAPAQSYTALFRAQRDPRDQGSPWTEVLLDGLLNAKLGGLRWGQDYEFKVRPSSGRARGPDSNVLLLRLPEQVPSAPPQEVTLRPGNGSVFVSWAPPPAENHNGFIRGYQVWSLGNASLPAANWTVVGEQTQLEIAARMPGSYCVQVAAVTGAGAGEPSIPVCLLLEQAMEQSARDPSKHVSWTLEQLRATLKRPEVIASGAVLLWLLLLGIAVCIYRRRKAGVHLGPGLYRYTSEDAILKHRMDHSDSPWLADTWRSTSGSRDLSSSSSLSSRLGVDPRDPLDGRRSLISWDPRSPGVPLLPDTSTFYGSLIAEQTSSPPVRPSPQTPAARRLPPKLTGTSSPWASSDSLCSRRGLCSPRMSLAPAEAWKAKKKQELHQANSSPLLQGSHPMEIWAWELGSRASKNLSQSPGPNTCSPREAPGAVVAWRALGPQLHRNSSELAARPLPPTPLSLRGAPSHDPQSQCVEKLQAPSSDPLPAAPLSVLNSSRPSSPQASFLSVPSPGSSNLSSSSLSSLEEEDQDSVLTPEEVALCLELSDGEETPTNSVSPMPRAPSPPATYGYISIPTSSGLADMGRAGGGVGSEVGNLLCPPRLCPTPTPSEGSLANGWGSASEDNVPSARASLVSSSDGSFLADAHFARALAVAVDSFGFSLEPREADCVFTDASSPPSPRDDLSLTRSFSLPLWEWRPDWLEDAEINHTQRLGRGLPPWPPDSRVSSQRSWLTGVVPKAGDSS
Kind of experiment: flow cytometry (FC500), HEK293 cells transfected with pCI-raROBO4, FITC goat anti-human IgG Fc; control histogram IgG (human IgG).

B1: anti-ROBO4 mouse monoclonal antibody MAb1 (antibody, mouse IgG1, V domains shown)
VH: EVQLVESGGGLVKPGGSLKLSCAASGFTFSTYAMSWVRQTPEKRLEWVATISNGGTYTYYPDSVKGRFTISRDNAENTLYLQMSSLRSEDTAMYFCARLIYYDYLDYWGHGTTLTVSS
VL: DAVMTQTPLSLPVSLGDQASISCRSSQSLENSNGNTYLNWYFQKPGQSPQLLIYRVSNRFSGVLDRFSGSGSGTDFTLKISRVEAEDFGVYFCLQVTHVPWTFGGGTKLEIKR
notes: Mouse IgG1 (gamma1), kappa light chain, purified from hybridoma supernatant; also called parent antibody MAb1
As for B1, the binding result in experiment [1] is “binds”.

B2: humanized MAb1 antibody H-1143 (antibody, human IgG2, kappa, V domains shown)
VH: EVQLVESGGGLVQPGGSLRLSCAASGFTFSTYAMSWVRQAPGKGLEWVATISQGGTYTYYPDSVKGRFTISRDNAKNTLYLQMNSLRAEDTAVYYCARLIYYDYLDYWGQGTLVTVSS
VL: DIVMTQSPLSLPVTLGEPASISCRSSQSLENENKNLYLNWYLQKPGQSPQLLIYRVSNRFSGVPDRFSGSGSGTDFTLKISRVEAEDVGVYYCLQVTHVPWTFGPGTKVDIKR
notes: Human IgG2 / kappa constant regions; also called hMAb1-H2-type heavy chain + hMAb1-L2-type light chain
With B2, the binding result in experiment [2] is recorded as “no binding (tested: 10 µg/mL)”.
